Experimental data as given in patent publication US20240209039A1 (RIKEN, published 2024).

B1: StayGold (CU17S/V168A mutant) (other)
chain: MASTPFKFQLKGTINGKSFTVEGEGEGNSHEGSHKGKYVCTSGKLPMSWAALGTSFGYGMKYYTKYPSGLKNWFHEVMPEGFTYDRHIQYKGDGSIHAKHQHFMKNGTYHNIVEFTGQDFKENSPVLTGDMNVSLPNEVQHIPRDDGVECPVTLLYPLLSDKSKCVEAHQNTICKPLHNQPAPDVPYHWIRKQYTQSKDDTEERDHICQSETLEAHL
notes: Made in E. coli JM109 (DE3) and purified on Ni-NTA; also called StayGold (dimer); not shown: N-terminal histidine tag from the pRSETB vector (purified on Ni-NTA)
B2: StayGold L155T (other)
chain: MASTPFKFQLKGTINGKSFTVEGEGEGNSHEGSHKGKYVCTSGKLPMSWAALGTSFGYGMKYYTKYPSGLKNWFHEVMPEGFTYDRHIQYKGDGSIHAKHQHFMKNGTYHNIVEFTGQDFKENSPVLTGDMNVSLPNEVQHIPRDDGVECPVTLTYPLLSDKSKCVEAHQNTICKPLHNQPAPDVPYHWIRKQYTQSKDDTEERDHICQSETLEAHL
notes: not shown: histidine tag implied by Ni-NTA purification
B3: StayGold Y187A (other)
chain: MASTPFKFQLKGTINGKSFTVEGEGEGNSHEGSHKGKYVCTSGKLPMSWAALGTSFGYGMKYYTKYPSGLKNWFHEVMPEGFTYDRHIQYKGDGSIHAKHQHFMKNGTYHNIVEFTGQDFKENSPVLTGDMNVSLPNEVQHIPRDDGVECPVTLLYPLLSDKSKCVEAHQNTICKPLHNQPAPDVPAHWIRKQYTQSKDDTEERDHICQSETLEAHL
notes: as for B2

How the values were obtained:
[1] = target: the molecule itself; test: pseudo-native PAGE, self-association (homodimer), FIG. 17
[2] = target: the molecule itself; test: pseudo-native PAGE (10% acrylamide, 0.1% SDS, no heat treatment), self-association
Protocol: After purification of the proteins with use of Ni-NTA, pseudo-native PAGE was carried out. The separation gel contained 10% acrylamide and 0.1% SDS. The sample buffer contained 2% SDS and 100 mM DTT. No heat treatment was carried out.

| Protein | binding result [1] | binding result [2] |
| --- | --- | --- |
| B1 | binds | – |
| B2 | – | no binding |
| B3 | – | no binding |
